This passage reports Ki results from patent publication US20260015399A1 (Boehringer Ingelheim, published 2026).

A word on the Ki: it is a dissociation constant, usually derived from enzyme kinetics or from competition with a known ligand.

The assay concerns the target T1, human NPY2 receptor (human, UniProt P49146 1-381).
T1 construct: whole, on cells; also called hNPY2-R; hNPY2R
T1 sequence (looked up): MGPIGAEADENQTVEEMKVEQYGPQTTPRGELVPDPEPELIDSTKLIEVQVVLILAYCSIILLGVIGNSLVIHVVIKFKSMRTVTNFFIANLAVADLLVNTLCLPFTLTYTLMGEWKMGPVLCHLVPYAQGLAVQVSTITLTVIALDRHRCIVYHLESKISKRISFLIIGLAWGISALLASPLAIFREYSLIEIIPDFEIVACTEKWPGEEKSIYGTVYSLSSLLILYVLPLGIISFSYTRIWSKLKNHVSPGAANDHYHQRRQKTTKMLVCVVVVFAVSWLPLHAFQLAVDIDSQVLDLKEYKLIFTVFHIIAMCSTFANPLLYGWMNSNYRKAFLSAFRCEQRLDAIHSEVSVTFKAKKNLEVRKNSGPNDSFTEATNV
Nature of the assay: RLB: displacement of 125I-PYY(1-36) from hNPY2R membranes. How it is done:
The filtration RLB assay was carried out in 96-well plates in a final volume of 100 μl per well. Freeze-dried test peptides were dissolved in 100% dimethyl sulfoxide (DMSO) to stock solutions of 1 mM and serial dilutions were performed in assay buffer (50 mM HEPES, 5 mM MgCl₂, 1 mM CaCl₂), pH 7.4) containing 0.2% ovalbumin. […] Next, 80 μL membranes (HTS066M, ChemiSCREEN™ Human Neuropeptide Y2 Receptor Membrane Preparation, CHEMICON) were added to each well to give a final protein concentration of 0.5 μg/well. The plates were sealed and incubated at room temperature for 2 hours in a plate shaker set at 400 rpm. The incubation was stopped by vacuum filtration onto 0.5% polyethylene amine (PEI) presoaked GF/C filters using a 96-well FilterMate™ harvester (Perkin Elmer) followed by four washes with 300 μl/well ice-cold wash buffer (50 mM HEPES, 500 mM NaCl, pH7.4). Filter plates were then dried for 60 min at room temperature and the bottom of the plates was sealed with backing tape UniFilter-96. Finally, 50 μl/well scintillation counter cocktail (Microscint20, Packard) was added and the radioactivity was counted in the Packard TopCount NXT scintillation counter. IC₅₀ values (the half maximal inhibitory concentration of the agonist) were calculated by nonlinear regression analysis of sigmoidal dose-response curves.
Background: In a radioligand displacement assay an active substance lowers the binding of a labelled ligand.

*1 amine or outer side, *2 acyl side, *3 side chain or, on linkers, in order; H or OH if unused. Side-chain parts run from the residue outwards. The star is where a group is joined. C18 diacid = O=C(O)CCCCCCCCCCCCCCCCC(=O)*; γGlu = O=C(O)[C@H](CCC(=O)[*:2])N[*:1]; Isovaleryl = CC(C)CC(=O)*; Ahx = NCCCCCC(=O)O

B1: Compound 173 (peptide)
peptide: Isovaleryl-APEK([Ahx-γGlu-C18 diacid])PEEDATPEELQRYYVSLRHYYNWLTRQRY-NH2
SMILES: CC(C)CC(=O)N[C@@H](C)C(=O)N1CCC[C@H]1C(=O)N[C@@H](CCC(=O)O)C(=O)N[C@@H](CCCCNC(=O)CCCCCNC(=O)CC[C@H](NC(=O)CCCCCCCCCCCCCCCCC(=O)O)C(=O)O)C(=O)N1CCC[C@H]1C(=O)N[C@@H](CCC(=O)O)C(=O)N[C@@H](CCC(=O)O)C(=O)N[C@@H](CC(=O)O)C(=O)N[C@@H](C)C(=O)N[C@H](C(=O)N1CCC[C@H]1C(=O)N[C@@H](CCC(=O)O)C(=O)N[C@@H](CCC(=O)O)C(=O)N[C@@H](CC(C)C)C(=O)N[C@@H](CCC(N)=O)C(=O)N[C@@H](CCCNC(=N)N)C(=O)N[C@@H](Cc1ccc(O)cc1)C(=O)N[C@@H](Cc1ccc(O)cc1)C(=O)N[C@H](C(=O)N[C@@H](CO)C(=O)N[C@@H](CC(C)C)C(=O)N[C@@H](CCCNC(=N)N)C(=O)N[C@@H](Cc1c[nH]cn1)C(=O)N[C@@H](Cc1ccc(O)cc1)C(=O)N[C@@H](Cc1ccc(O)cc1)C(=O)N[C@@H](CC(N)=O)C(=O)N[C@@H](Cc1c[nH]c2ccccc12)C(=O)N[C@@H](CC(C)C)C(=O)N[C@H](C(=O)N[C@@H](CCCNC(=N)N)C(=O)N[C@@H](CCC(N)=O)C(=O)N[C@@H](CCCNC(=N)N)C(=O)N[C@@H](Cc1ccc(O)cc1)C(N)=O)[C@@H](C)O)C(C)C)[C@@H](C)O
B1 displayed a Ki of 4.07 nM.

B2: Compound 1 (peptide)
peptide: Isovaleryl-APEK([Ahx-γGlu-C18 diacid])PEADAEPEELQRYYIALRHYYNWLTRQRY-NH2
SMILES: CC[C@H](C)[C@H](NC(=O)[C@H](Cc1ccc(O)cc1)NC(=O)[C@H](Cc1ccc(O)cc1)NC(=O)[C@H](CCCNC(=N)N)NC(=O)[C@H](CCC(N)=O)NC(=O)[C@H](CC(C)C)NC(=O)[C@H](CCC(=O)O)NC(=O)[C@H](CCC(=O)O)NC(=O)[C@@H]1CCCN1C(=O)[C@H](CCC(=O)O)NC(=O)[C@H](C)NC(=O)[C@H](CC(=O)O)NC(=O)[C@H](C)NC(=O)[C@H](CCC(=O)O)NC(=O)[C@@H]1CCCN1C(=O)[C@H](CCCCNC(=O)CCCCCNC(=O)CC[C@H](NC(=O)CCCCCCCCCCCCCCCCC(=O)O)C(=O)O)NC(=O)[C@H](CCC(=O)O)NC(=O)[C@@H]1CCCN1C(=O)[C@H](C)NC(=O)CC(C)C)C(=O)N[C@@H](C)C(=O)N[C@@H](CC(C)C)C(=O)N[C@@H](CCCNC(=N)N)C(=O)N[C@@H](Cc1c[nH]cn1)C(=O)N[C@@H](Cc1ccc(O)cc1)C(=O)N[C@@H](Cc1ccc(O)cc1)C(=O)N[C@@H](CC(N)=O)C(=O)N[C@@H](Cc1c[nH]c2ccccc12)C(=O)N[C@@H](CC(C)C)C(=O)N[C@H](C(=O)N[C@@H](CCCNC(=N)N)C(=O)N[C@@H](CCC(N)=O)C(=O)N[C@@H](CCCNC(=N)N)C(=O)N[C@@H](Cc1ccc(O)cc1)C(N)=O)[C@@H](C)O
Molecule B2 showed a Ki of 2.05 nM.
